Assay results: paper PMC2289762 (The Journal of Cell Biology, 1992)

Target: the molecule itself
Assay: cross-linking

B1: centromere protein B (CENP-B), full-size, from HeLa nuclei (natural protein)
chain: MGPKRRQLTFREKSRIIQEVEENPDLRKGEIARRFNIPPSTLSTILKNKRAILASERKYGVASTCRKTNKLSPYDKLEGLLIAWFQQIRAAGLPVKGIILKEKALRIAEELGMDDFTASNGWLDRFRRRHGVVSCSGVARARARNAAPRTPAAPASPAAVPSEGSGGSTTGWRAREEQPPSVAEGYASQDVFSATETSLWYDFLPDQAAGLCGGDGRPRQATQRLSVLLCANADGSEKLPPLVAGKSAKPRAGQAGLPCDYTANSKGGVTTQALAKYLKALDTRMAAESRRVLLLAGRLAAQSLDTSGLRHVQLAFFPPGTVHPLERGVVQQVKGHYRQAMLLKAMAALEGQDPSGLQLGLTEALHFVAAAWQAVEPSDIAACFREAGFGGGPNATITTSLKSEGEEEEEEEEEEEEEEGEGEEEEEEGEEEEEEGGEGEELGEEEEVEEEGDVDSDEEEEEDEESSSEGLEAEDWAQGVVEAGGSFGAYGAQEEAQCPTLHFLEGGEDSDSDSEEEDDEEEDDEDEDDDDDEEDGDEVPVPSFGEAMAYFAMVKRYLTSFPIDDRVQSHILHLEHDLVHVTRKNHARQAGVRGLGHQS
- stoichiometry N: 2
